According to publication PMC8762078 (The Journal of Biological Chemistry, 2021):

B1: p62 WT-AIM peptide (peptide)
peptide: SGGDDDWTHLSS
notes: also called p62 AIM; source: synthetic peptide; bought: Genosphere Biotechnologies and Peptide Synthetics
B2: LC3C (microtubule-associated protein 1A/1B light chain 3C) (natural protein, human, UniProt Q9BXW4 1-126, looked up)
chain: MPPPQKIPSVRPFKQRKSLAIRQEEVAGIRAKFPNKIPVVVERYPRETFLPPLDKTKFLVPQELTMTQFLSIIRSRMVLRATEAFYLLVNNKSLVSMSATMAEIYRDYKDEDGFVYMTYASQETFG

Assays:
Conditions in all cases: both partners purified
[1] = molecular target: B2; assay: ITC; MicroCal VP-ITC, 30 °C; protein 10 μM in the cell, 10 μl injections of peptide (100-150 μM); 25 mM potassium phosphate, 150 mM NaCl, pH 7.0; no reducing agent; one site binding model; two independent measurements
GABARAPL2 = molecular target: T1, GABARAPL2 (human, UniProt P60520 1-117); assay: as above
T1 construct: GABARAPL2, human ATG8 protein of the GABARAP subfamily; 15N-labelled (13C,15N for assignment) in M9 minimal medium for the NMR experiments; Cloned into pGEX-4T-1 between BamHI and XhoI; thrombin cleavage may leave a few vector residues at the N-terminus (surmised); also called hATG8; source: E. coli BL21 (DE3), purified (Glutathione Sepharose, thrombin cleavage, ion exchange, gel filtration); not …

GABARAPL1 = GABARAPL1 (human, UniProt Q9H0R8 1-117); assay: as above
[2] = molecular target: LC3A (microtubule-associated protein 1A/1B light chain 3A) (human, UniProt Q9H492 1-121); assay: as above
[3] = molecular target: LC3B (microtubule-associated protein 1A/1B light chain 3B) (human, UniProt Q9GZQ8 1-120); assay: as above
p62 WT-AIM peptide = molecular target: B1; assay: native MS; ESI-MS competition binding under nondenaturing conditions: each hATG8 titrated into an equimolar mixture of WT-AIM and L341V-AIM peptides (each 10 μM); read-out is the ratio of peak intensities of unbound WT and L341V peptides; ratios given for 20 μM hATG8; two independent experiments

Chain of GABARAPL1 (Q9H0R8 whole entry): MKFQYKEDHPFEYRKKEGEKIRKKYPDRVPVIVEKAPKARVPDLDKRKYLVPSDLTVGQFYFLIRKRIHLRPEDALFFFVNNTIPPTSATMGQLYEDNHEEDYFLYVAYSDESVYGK
T1 sequence (P60520 whole entry): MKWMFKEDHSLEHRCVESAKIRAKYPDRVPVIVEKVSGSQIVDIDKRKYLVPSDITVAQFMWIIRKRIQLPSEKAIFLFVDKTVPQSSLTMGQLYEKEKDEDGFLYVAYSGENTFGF

| Binder | Kd [1] | dH [1] | stoichiometry N [1] | dH (GABARAPL2) | stoichiometry N (GABARAPL2) | Kd (GABARAPL1) | dH (GABARAPL1) | stoichiometry N (GABARAPL1) | Kd [2] | dH [2] | stoichiometry N [2] | Kd [3] | dH [3] | Kd (GABARAPL2) | ratio of unbound WT:L341V AIM peptides at 20 μM hATG8 (reference: L341V-AIM) (p62 WT-AIM peptide) |
| --- | --- | --- | --- | --- | --- | --- | --- | --- | --- | --- | --- | --- | --- | --- | --- |
| B1 | 16.8 µM | -3.59 kcal/mol | 0.82 | -2.43 kcal/mol | 1.07 | 3.23 µM | -5.61 kcal/mol | 0.86 | 4.55 µM | -17.9 kcal/mol | 1.05 | 3.83 µM | -10.7 kcal/mol | – | – |
| SGGDDDWTHVSS (also called L341V-mutant peptide; mutant AIM; source: synthetic peptide; bought: Genosphere Biotechnologies and Peptide Synthetics) [p62 L341V-AIM peptide] | – | -5.38 kcal/mol | 0.9 | -4 kcal/mol | 1.03 | 5.78 µM | -5.37 kcal/mol | 0.98 | – | -6.3 kcal/mol | – | 8.47 µM | – | 6.99 µM | – |
| B2 | – | – | – | – | – | – | – | – | – | – | – | – | – | – | > 0.95 |
